Results as given in article PMC10197132.

What was measured:
[1] = biological target: G3-SEAP (human-secreted embryonic alkaline phosphatase with an N-terminal Gly3 sequence) (human); assay: SEC-MALS
G3-SEAP = G3-SEAP (human, UniProt P05187); assay: fluorescence polarization

stoichiometry N [1] | Molecule | binding result (G3-SEAP)
2 | G3-SEAP (human-secreted embryonic alkaline phosphatase with an N-terminal Gly3 sequence) (enzyme) | 
 | FAM-23DR DNA-RNA hybrid (DNA:RNA) DNA: CGGTGTGGTCGCTGTAATCAGAG RNA: CUCUGAUUACAGCGACCACACCG | no binding
